In article doi:10.1101/2022.12.15.520641:

Target: 6His-σS (His-tagged RpoS) (E. coli) (UniProt P13445)
Assay: pull-down

UniProt P13445, sequence (P13445 whole entry): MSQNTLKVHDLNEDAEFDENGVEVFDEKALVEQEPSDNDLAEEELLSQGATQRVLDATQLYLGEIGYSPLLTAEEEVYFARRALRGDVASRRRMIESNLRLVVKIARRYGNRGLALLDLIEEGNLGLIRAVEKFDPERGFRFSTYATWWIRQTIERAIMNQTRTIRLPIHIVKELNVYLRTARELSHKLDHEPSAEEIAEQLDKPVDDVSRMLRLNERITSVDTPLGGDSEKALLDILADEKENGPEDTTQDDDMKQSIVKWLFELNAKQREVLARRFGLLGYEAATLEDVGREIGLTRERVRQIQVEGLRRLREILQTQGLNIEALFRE

- fold increase in pull-down efficiency over RssB without Mg2+•beryllofluoride: 5 fold
Substance: RssB bound to Mg2+•beryllofluoride (phosphorylated-like RssB) (from UniProt P0AEV1 1-337) (natural protein)
